Laboratory results: patent publication US12552837
*1 amine or outer side, *2 acyl side, *3 side chain or, on linkers, in order; H or OH if unused. Bridges are numbered along the chain shown (N, C = ends). [ ]: non-standard residue; d: D form. The star is where a group is joined. DOTA = O=C(O)CN1CCN(CC(=O)O)CCN(CC(=O)*)CCN(CC(=O)O)CC1; 1Nal = N[C@@H](Cc1cccc2ccccc12)C(=O)O; TBMB = c1c(C[*:1])cc(C[*:3])cc1C[*:2]; Tle = CC(C)(C)[C@H](N)C(=O)O

Biological target: membrane type 1-matrix metalloproteinase (MT1-MMP), P50281
Assay: not stated at the place; fluorescence polarization with MT1-MMP hemopexin domain per Examples 7-8

Kd: 0.52 nM
B1: I-23 (peptide)
peptide: {DOTA}-AC[dA]NE[1Nal][dA]CEDFYD[Tle]C-NH2
modifications: linker 2-8-15 via TBMB
SMILES: C[C@H](NC(=O)CN1CCN(CC(=O)O)CCN(CC(=O)O)CCN(CC(=O)O)CC1)C(=O)N[C@H]1CSCc2cc3cc(c2)CSC[C@H](NC(=O)[C@@H](C)NC(=O)[C@H](Cc2cccc4ccccc24)NC(=O)[C@H](CCC(=O)O)NC(=O)[C@H](CC(N)=O)NC(=O)[C@@H](C)NC1=O)C(=O)N[C@@H](CCC(=O)O)C(=O)N[C@@H](CC(=O)O)C(=O)N[C@@H](Cc1ccccc1)C(=O)N[C@@H](Cc1ccc(O)cc1)C(=O)N[C@@H](CC(=O)O)C(=O)N[C@@H](C(C)(C)C)C(=O)N[C@H](C(N)=O)CSC3
